# Assay results: the supplement of paper PMC10567573
# B1: COX4I1 (parent)
# chain: FDKEWVAKQTKRMLDMKVNPIQGL
# Variants of: B1
# Assay: protein stability index of a GFP-peptide fusion (GPS, HEK-293T) (PSI 1-6); higher = more stable
# Conditions: c terminus: a fixed tail appended
# 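Further: lentivirally expressed fusions sorted by FACS into six bins by GFP to DsRed ratio, PSI derived from sequencing read proportions per bin multiplied by bin number.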
row,Variant,protein stability index
1,FWKEWVAKQTKRMLDMKVNPIQGL,1.52
2,FRKEWVAKQTKRMLDMKVNPIQGL,1.27
3,FEKEWVAKQTKRMLDMKVNPIQGL,1.89
4,FCKEWVAKQTKRMLDMKVNPIQGL,4.02
5,FMKEWVAKQTKRMLDMKVNPIQGL,1.93
6,FNKEWVAKQTKRMLDMKVNPIQGL,2.57
7,FAKEWVAKQTKRMLDMKVNPIQGL,2.65
8,FDKEWVAKQTKRPLDMKVNPIQGL,2.35
9,FDKEWVAKQTKRGLDMKVNPIQGL,1.64
10,FDKEWVAKQTKRCLDMKVNPIQGL,2.17
11,FDKEWVAKQTKRILDMKVNPIQGL,2.34
12,FDKEWVAKQTKRFLDMKVNPIQGL,2.12
13,FDKEWVAKQTKRMLDLKVNPIQGL,2
14,FDKEWVAKQTKRMLDGKVNPIQGL,2.13
15,FDKEWVAKQTKRMLDPKVNPIQGL,2.19
16,FDKEWVAKQTKRMLDQKVNPIQGL,2.4
17,FDKEWVAKQTKRMLDIKVNPIQGL,2.1
18,FDKEWVAKQTKRMLDKKVNPIQGL,1.5
19,FDKEWVAKQTKRMLDAKVNPIQGL,1.48
20,FDKEWVAKQTKRMLDTKVNPIQGL,1.79
21,FDKEWVAKQTKRMLDWKVNPIQGL,2.02
22,FDKEWVAKQTKRMLDMKVNPRQGL,1.61
23,FDKEWVAKQTKRMLDMKVNPTQGL,1.83
24,FDKEWVAKQTKRMLDMKVNPKQGL,2.06

row,Variant,protein stability index
1,FDKEWVAKQTKRMLDMKVNPHQGL,2.19
2,FDKEWVAKQTKRMLDMKVNPIMGL,2.69
3,FDKEWVAKQTKRMLDMKVNPINGL,1.77
4,FDKEWVAKQTKRMLDMKVNPIHGL,1.93
5,FDKEWVAKQTKRMLDMKVNPIKGL,1.92
6,FDKEWVAKQTKRMLDMKVNPIPGL,1.73
7,FDKEWVAKQTKRMLDMKVNPIFGL,1.73
8,FDKEWVAKQTKRMLDMKVNPIYGL,2.13
9,FDKEWVAKQTKRMLDMKVNPIRGL,1.89
10,FDKEWVAYQTKRMLDMKVNPIQGL,2.59
11,FDKEWVAHQTKRMLDMKVNPIQGL,1.77
12,FDKEWVAAQTKRMLDMKVNPIQGL,1.06
13,FDKEWVAWQTKRMLDMKVNPIQGL,3.04
14,FDKEWVALQTKRMLDMKVNPIQGL,2.31
15,FDKEWVASQTKRMLDMKVNPIQGL,1.75
16,FDKEWVAKQTKRMLDMKVNPIQGD,1.84
17,FDKEWVAKQTKRMLDMKVNPIQGS,2.31
18,FDKEWVAKQTKRMLDMKVNPIQGP,2.08
19,FDKEWVAKQTKRMLDMKVNPIQGQ,2.45
20,FDKEWVAKQTKRMLDMKVNPIQGH,2.55
21,FDKEWVAKQTKRMLDMKVNPIQGA,1.83
22,FDKEWVAKQTKRMLDMKVNPIQGR,2.09
23,FDKEWVAKQTKRMLDMKVNPIQGY,1.59
24,FDKEWVAKQTKRMLDMKVNPIQGW,1.73

row,Variant,protein stability index
1,FDKEWVAKQTKRMLDMKVNPIQLL,1.35
2,FDKEWVAKQTKRMLDMKVNPIQWL,1.88
3,FDKEWVAKQTKRMLDMKVNPIQPL,1.39
4,FDKEWVAKQTKRMLDMKVNPIQEL,1.72
5,FDKEWVAKQTKRMLDMKVNPIQTL,1.77
6,FDKEWVAKQTKRMLDMKVNPIQDL,1.9
7,FDKEWVAKQTKRMLDMKVNPIQAL,1.43
8,FDKEWVAKQTKRMLGMKVNPIQGL,1.75
9,FDKEWVAKQTKRMLCMKVNPIQGL,1.66
10,FDKEWVAKQTKRMLEMKVNPIQGL,1.68
11,FDKEWVAKQTKRMLVMKVNPIQGL,1.33
12,FDKEWVAKQTKRMLHMKVNPIQGL,1.88
13,FDKEWVAKQTKRMLPMKVNPIQGL,1.84
14,FDKEWVAKQTKRMLLMKVNPIQGL,1.64
15,FDKEWVAKQTKRMLNMKVNPIQGL,1.58
16,FDKEWVAKQTKRMLKMKVNPIQGL,1.89
17,FDKEWVAKQHKRMLDMKVNPIQGL,1.69
18,FDKEWVAKQNKRMLDMKVNPIQGL,1.73
19,FDKEWVAKQMKRMLDMKVNPIQGL,1.91
20,FDKEWVAKQKKRMLDMKVNPIQGL,1.78
21,FDKEWVAKQFKRMLDMKVNPIQGL,1.82
22,FDKEWVAKQQKRMLDMKVNPIQGL,1.84
23,FDKEWVAKQDKRMLDMKVNPIQGL,1.82
24,FDKEWVAKQLKRMLDMKVNPIQGL,1.24

row,Variant,protein stability index
1,FDKEWVAKQTYRMLDMKVNPIQGL,3.38
2,FDKEWVAKQTPRMLDMKVNPIQGL,2.32
3,FDKEWVAKQTERMLDMKVNPIQGL,1.86
4,FDKEWVAKQTQRMLDMKVNPIQGL,1.79
5,FDKEWVAKQTVRMLDMKVNPIQGL,2.58
6,FDKEWVAKQTSRMLDMKVNPIQGL,2.28
7,FDKEWVAKQTIRMLDMKVNPIQGL,1.8
8,FDKEWVPKQTKRMLDMKVNPIQGL,2.05
9,FDKEWVFKQTKRMLDMKVNPIQGL,1.56
10,FDKEWVYKQTKRMLDMKVNPIQGL,1.71
11,FDKEWVKKQTKRMLDMKVNPIQGL,2.29
12,FDKEWVIKQTKRMLDMKVNPIQGL,1.68
13,FDKEWVSKQTKRMLDMKVNPIQGL,1.11
14,FDKEWVQKQTKRMLDMKVNPIQGL,1.84
15,FDKEWVAKQTKRMLDMKLNPIQGL,1.72
16,FDKEWVAKQTKRMLDMKYNPIQGL,2.87
17,FDKEWVAKQTKRMLDMKSNPIQGL,1.81
18,FDKEWVAKQTKRMLDMKNNPIQGL,1.86
19,FDKEWVAKQTKRMLDMKQNPIQGL,2.22
20,FDKEWVAKQTKRMLDMKFNPIQGL,1.42
21,FDKEWVAKQTKRMLDMKDNPIQGL,1.53
22,FDKEWVAKQTKRMLDMKTNPIQGL,2.24
23,FDKEWVAKQTKRMLDMKHNPIQGL,1.94
24,FDKEWVAKQTKRMLDMKGNPIQGL,2

row,Variant,protein stability index
1,FDKEWVAKQTKRMLDMTVNPIQGL,1.83
2,FDKEWVAKQTKRMLDMNVNPIQGL,1.88
3,FDKEWVAKQTKRMLDMGVNPIQGL,1.51
4,FDKEWVAKQTKRMLDMMVNPIQGL,1.58
5,FDKEWVAKQTKRMLDMQVNPIQGL,1.41
6,FDKEWVAKQTKRMLDMRVNPIQGL,1.95
7,FDKEWVAKQTKRMLDMVVNPIQGL,2.03
8,FDKEWVAKQTKRMLDMLVNPIQGL,2.57
9,FDKEWVAKQTKRMLDMAVNPIQGL,1.96
10,FDKEWVAKQTKRMLDMCVNPIQGL,2.08
11,FDKEWVAKQTKHMLDMKVNPIQGL,1.97
12,FDKEWVAKQTKQMLDMKVNPIQGL,2.84
13,FDKEWVAKQTKCMLDMKVNPIQGL,1.43
14,FDKEWVAKQTKKMLDMKVNPIQGL,1.81
15,FDKEWVAKQTKGMLDMKVNPIQGL,1.35
16,FDKEWVAKQTKWMLDMKVNPIQGL,1.65
17,FDKEWVAKQTKAMLDMKVNPIQGL,1.88
18,FDKEWVAKQTKEMLDMKVNPIQGL,2.59
19,FDKEWVAKQTKYMLDMKVNPIQGL,1.56
20,FDKEWVAKQTKMMLDMKVNPIQGL,1.6
21,FDKDWVAKQTKRMLDMKVNPIQGL,1.9
22,FDKFWVAKQTKRMLDMKVNPIQGL,1.63
23,FDKYWVAKQTKRMLDMKVNPIQGL,1.89
24,FDKAWVAKQTKRMLDMKVNPIQGL,2.41

row,Variant,protein stability index
1,FDKWWVAKQTKRMLDMKVNPIQGL,1.66
2,FDKPWVAKQTKRMLDMKVNPIQGL,1.66
3,FDEEWVAKQTKRMLDMKVNPIQGL,2.83
4,FDMEWVAKQTKRMLDMKVNPIQGL,1.64
5,FDSEWVAKQTKRMLDMKVNPIQGL,2.19
6,FDWEWVAKQTKRMLDMKVNPIQGL,1.29
7,FDHEWVAKQTKRMLDMKVNPIQGL,1.52
8,FDCEWVAKQTKRMLDMKVNPIQGL,2.12
9,FDFEWVAKQTKRMLDMKVNPIQGL,1.87
10,FDNEWVAKQTKRMLDMKVNPIQGL,2.06
11,FDPEWVAKQTKRMLDMKVNPIQGL,1.75
12,FDKEWVAKQTKRMGDMKVNPIQGL,1.72
13,FDKEWVAKQTKRMYDMKVNPIQGL,2.42
14,FDKEWVAKQTKRMNDMKVNPIQGL,1.56
15,FDKEWVAKQTKRMSDMKVNPIQGL,1.54
16,FDKEWVAKWTKRMLDMKVNPIQGL,1.8
17,FDKEWVAKETKRMLDMKVNPIQGL,2.26
18,FDKEWVAKITKRMLDMKVNPIQGL,1.6
19,FDKEWVAKPTKRMLDMKVNPIQGL,2
20,FDKEWVAKSTKRMLDMKVNPIQGL,2.46
21,FDKEVVAKQTKRMLDMKVNPIQGL,4.17
22,FDKEMVAKQTKRMLDMKVNPIQGL,3.52
23,FDKELVAKQTKRMLDMKVNPIQGL,3
24,FDKEPVAKQTKRMLDMKVNPIQGL,3.63

row,Variant,protein stability index
1,FDKEEVAKQTKRMLDMKVNPIQGL,3.6
2,FDKESVAKQTKRMLDMKVNPIQGL,3.61
3,FDKEGVAKQTKRMLDMKVNPIQGL,3.92
4,FDKEAVAKQTKRMLDMKVNPIQGL,3.96
5,FDKEKVAKQTKRMLDMKVNPIQGL,3.54
6,WDKEWVAKQTKRMLDMKVNPIQGL,2.17
7,QDKEWVAKQTKRMLDMKVNPIQGL,3.31
8,DDKEWVAKQTKRMLDMKVNPIQGL,4.38
9,IDKEWVAKQTKRMLDMKVNPIQGL,3.11
10,YDKEWVAKQTKRMLDMKVNPIQGL,1.71
11,CDKEWVAKQTKRMLDMKVNPIQGL,2.62
12,SDKEWVAKQTKRMLDMKVNPIQGL,3.34
13,ADKEWVAKQTKRMLDMKVNPIQGL,3.42
14,EDKEWVAKQTKRMLDMKVNPIQGL,3.19
15,GDKEWVAKQTKRMLDMKVNPIQGL,2.92
16,FDKEWVAKQTKRMLDMKVCPIQGL,2.23
17,FDKEWVAKQTKRMLDMKVVPIQGL,2.22
18,FDKEWVAKQTKRMLDMKVLPIQGL,1.26
19,FDKEWVAKQTKRMLDMKVHPIQGL,1.7
20,FDKEWVAKQTKRMLDMKVYPIQGL,2.55
21,FDKEWVAKQTKRMLDMKVIPIQGL,1.76
22,FDKEWVAKQTKRMLDMKVDPIQGL,1.79
23,FDKEWVAKQTKRMLDMKVGPIQGL,1.94
24,FDKEWVAKQTKRMLDMKVWPIQGL,1.38

row,Variant,protein stability index
1,FDKEWVAKQTKRMLDMKVSPIQGL,1.97
2,FDKEWVAKQTKRMLDMKVTPIQGL,1.16
3,FDKEWVAKQTKRMLDMKVQPIQGL,1.64
4,FDKEWVAKQTKRMLDMKVPPIQGL,2.32
5,FDKEWYAKQTKRMLDMKVNPIQGL,1.6
6,FDKEWNAKQTKRMLDMKVNPIQGL,1.79
7,FDKEWCAKQTKRMLDMKVNPIQGL,1.53
8,FDKEWFAKQTKRMLDMKVNPIQGL,1.55
9,FDKEWIAKQTKRMLDMKVNPIQGL,1.35
10,FDKEWVAKQTKRMLDMKVNDIQGL,1.63
11,FDKEWVAKQTKRMLDMKVNRIQGL,1.68
12,FDKEWVAKQTKRMLDMKVNLIQGL,1.63
13,FDKEWVAKQTKRMLDMKVNAIQGL,1.61
14,FDKEWVAKQTKRMLDMKVNCIQGL,1.73
15,FDKEWVAKQTKRMLDMKVNSIQGL,1.55
16,FDKEWVAKQTKRMLDMKVNWIQGL,2.4
17,FDKEWVAKQTKRMLDMKVNTIQGL,2.38
18,FDKEWVAKQTKRMLDMKVNKIQGL,1.55
19,FDKEWVAKQTKRMLDMKVNEIQGL,1.59
20,FDKEWVAKQTKRMLDMKVNNIQGL,1.47
